“And” between values parts separate entries of the source, which are not always exact repeats. Equal values may be shown once.
Key:
[1] = biological target: T1, human CCR8 (human, UniProt P51685 1-355); assay: flow cytometry, inhibition of hCCL1-AF647 binding to hCCR8 CHO cells
T1 construct: also called hCCR8; hCCR8_P51685
Description: The hCCR8 transfected CHO cell line was dispatched at a density of 1·10⁵ per well in a 96-well plate. Cells were incubated for 30 min at 4° C. with or without anti-CCR8 mAb tested at 10 μg/mL then diluted at 1/3. Unbound antibodies were washed away with PBS (Gibco, Villebon-sur-Yvette, France) supplemented by 2% Fetal Bovine Serum (Invitrogen by Thermofisher Scientific, Illkirch-Graffenstaden, France) and 2 mM EDTA. […] After washing unbound ligands, CCL1 bound detection is quantified on a MacsQuant16 (Miltenyi, Gladbach, Germany) (R1 channel, 5 000 events per acquisition).
For IC₅₀ determination, a concentration response curve is performed using 8 concentrations of mAb. Curves are fitted and IC₅₀ of CCL1 binding blocking activity is calculated using the sigmoidal dose-response (variable slope) model on GraphPad Prism 9 (GraphPad Software, San Diego, CA, USA).

[2] = biological target: pm4, modified CCR8 related peptide (human, sulfated tyrosines at Y15 and Y16); assay: ELISA on coated CCR8 peptide (500 ng/mL), OD [cont.]
Chain of pm4, modified CCR8 related peptide (human, sulfated tyrosines at Y15 and Y16) (peptide, as listed by the source): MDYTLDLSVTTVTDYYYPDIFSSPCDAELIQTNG
Description: (§1) The specific binding properties of antibodies were evaluated by ELISA with coated CCR8 related peptides (500 ng/mL) in carbonate/bicarbonate buffer. Different peptides were used as described in Table 1 (see Example 1). Each anti-CCR8 mAb was tested at 1 μg/mL then diluted at 1/10. After an incubation at room temperature during 90 min, unbound mAbs were removed by washings. […] After washings, 3,3′,5,5′-tetramethylbenzidine (TMB) (Interchim, Montlugon, France) was added for 15 min. Then the optical density (OD) was determined by using a multiplate reader (Tecan, Lyon, France) and correlated with mAb reactivity on the panel of coated peptides.

[3] = biological target: pm8, modified CCR8 related peptide (human, sulfated tyrosines at Y15, Y16 and Y17); assay: as above
Chain of pm8, modified CCR8 related peptide (human, sulfated tyrosines at Y15, Y16 and Y17) (peptide, as listed by the source): as above
Description: as §1

[4] = biological target: T2, pwt1, unmodified CCR8 related peptide (human, none (non-sulfated Y15, Y16, Y17)); assay: as above
T2 construct: First 34 amino acids of human CCR8, synthetic; also called unmodified peptide
T2 sequence (peptide, as listed by the source): as above
Description: as §1

[5] = biological target: pm5, modified CCR8 related peptide (human, sulfated tyrosines at Y15 and Y17); assay: as above
Chain of pm5, modified CCR8 related peptide (human, sulfated tyrosines at Y15 and Y17) (peptide, as listed by the source): as above
Description: as §1

[6] = biological target: pm3, modified CCR8 related peptide (human, sulfated tyrosine at Y17); assay: as above
Chain of pm3, modified CCR8 related peptide (human, sulfated tyrosine at Y17) (peptide, as listed by the source): as above
Description: as §1

[7] = biological target: pm6, modified CCR8 related peptide (human, sulfated tyrosines at Y16 and Y17); assay: as above
Chain of pm6, modified CCR8 related peptide (human, sulfated tyrosines at Y16 and Y17) (peptide, as listed by the source): as above
Description: as §1

[8] = biological target: pm1, modified CCR8 related peptide (human, sulfated tyrosine at Y15); assay: as above
Chain of pm1, modified CCR8 related peptide (human, sulfated tyrosine at Y15) (peptide, as listed by the source): as above
Description: as §1

[9] = biological target: pm2, modified CCR8 related peptide (human, sulfated tyrosine at Y16); assay: as above
Chain of pm2, modified CCR8 related peptide (human, sulfated tyrosine at Y16) (peptide, as listed by the source): as above
Description: as §1

[10] = biological target: T1, human CCR8; assay: cell-based or functional assay
[11] = biological target: T1, human CCR8; assay: flow cytometry, hCCR8 transfected CHOK1 cells
Description: The same staining protocol was applied on human CCR8 transfected CHO cell line versus wild type CHO cell line, cutaneous T cell lymphoma HUT78 cell line and human activated T cell model.
Briefly, 1·10⁵ cells per well in a 96 well plate were incubated with a dilution of unconjugated anti-CCR8 mAb at 10 μg/mL then diluted at 1/3.33, 4 dilution points (during 30 min at 4° C.). In human activated T cells model, prior to mAb incubation, cells were first incubated with 200 nM of hCCL1 (R&D Systems, Minneapolis, MN, USA) or buffer PBS (Invitrogen by Thermofisher Scientific, Illkirch-Graffenstaden, France) supplemented by 2% Fetal Bovine Serum (Invitrogen by Thermofisher Scientific, Illkirch-Graffenstaden, France) and 2 mM EDTA (Invitrogen by Thermofisher Scientific, Illkirch-Graffenstaden, France) during 1 hour at 4° C. To determine EC50 value, 8 concentrations of anti-CCR8 mAb were tested. Unbound antibodies were washed away with PBS (Invitrogen by Thermofisher Scientific, Illkirch-Graffenstaden, France) supplemented by 2% Fetal Bovine Serum (Invitrogen by Thermofisher Scientific, Illkirch-Graffenstaden, France) and 2 mM EDTA (Invitrogen by Thermofisher Scientific, Illkirch-Graffenstaden, France). Subsequently, cells are centrifuged (5 min at 400 g) and bound antibody is detected with F(ab′)₂-Goat anti-Mouse IgG (H+L) Cross-Adsorbed Secondary Antibody, Alexa Fluor 488 (dilution 1/500) (Invitrogen by Thermofisher Scientific, Illkirch-Graffenstaden, France) or with F(ab′)₂-Goat anti-Human IgG Fc Secondary Antibody, PE (Invitrogen by Thermofisher Scientific, Illkirch-Graffenstaden, France) (dilution 1/1000) at 4° C. for 30 min. Detection reagent is washed away and cells are centrifuged (5 min at 400 g) and resuspended in 30 μL PBS. Bound detection antibody is quantified on a MacsQuant16 (Miltenyi, Gladbach, Germany) (B1 or B2 channel, 5000 events per acquisition). During the experiment, the respective isotype mAb controls (mouse IgG1, mouse IgG2a, mouse IgG2b, mouse IgG3 or human IgG1) (Biolegend, Amsterdam, The Netherlands) are included to exclude any unspecific binding events.

[12] = biological target: T1, human CCR8; assay: cell-based or functional assay; remark: listed apart in the source
[13] = biological target: T1, human CCR8; assay: cell-based or functional assay; remark: listed apart in the source

Row | IC50 [1] | binding result [2] | binding result [3] | binding result [4] | binding result [5] | binding result [6] | binding result [7] | binding result [8] | binding result [9] | IC50, CCL1 induced hCCR8 Gi2 signaling (BRET, HEK-293) [10] | % positive cells [11] | MFI fold change to isotype ctrl [11] | IC50, CCL1 induced hCCR8 Gi2 signaling (BRET) at pH 6.5 [12] | IC50, CCL1 induced hCCR8 Gi2 signaling (BRET) at pH 7.4 [12] | hCCL1 (100 nM) residual response in %, Protocol #2, mAb 0.08 µg/mL (0.53 nM) [13] | hCCL1 (100 nM) residual response in %, Protocol #2, mAb 0.4 µg/mL (2.67 nM) [13] | hCCL1 (100 nM) residual response in %, Protocol #2, mAb 10 µg/mL (66.7 nM) [13] | hCCL1 (100 nM) residual response in %, Protocol #3, mAb 0.05 µg/mL (0.33 nM) [13] | hCCL1 (100 nM) residual response in %, Protocol #3, mAb 0.5 µg/mL (3.33 nM) [13] | hCCL1 (100 nM) residual response in %, Protocol #3, mAb 5 µg/mL (33.3 nM) [13] | Binder
1 | 1.15 µg/mL and 7.73 nM | binds | binds | binds | binds | binds | binds | binds | binds | 0.044 µg/mL and 0.291 nM | 73.7% | 10.3 fold |  |  |  |  |  |  |  |  | anti-CCR8 mAb 2-5 (antibody, V domains shown) VH: EVQLQQSGPELVKPGASVKISCKTSGYTFTEYTIHWVKQSHGKSLEWVGGINPDNGNTRYDQKFKGKATLTIDKSSSTAYMELRSLTSEDSAVYYCARVARSSGSGPYAMDYWGQGTSVTVSS VL: DVVMTQTPLSLPVSLGDQASISCRCTQSLLHTNGDTYLHWYLQKPGQSPKLLIYKVSNRFSGVPDRFSGSGSGTDFTLKISRVEAEDLGVYFCSQSTHVPYTFGGGTKLEIK
2 | 2.22 µg/mL and 14.8 nM | binds | binds | binds | binds | binds | binds | binds | binds | 0.712 µg/mL and 4.75 nM | 78.9% | 6.36 fold | 0.578 µg/ml and 3.85 nM | 0.812 µg/ml and 5.41 nM |  |  |  |  |  |  | anti-CCR8 mAb 2-8 (antibody, V domains shown) VH: QVQLKESGPGLVAPSQSLSITCTVSGFSLTDYGVSWIRQPPGKGPEWLGVIWGGGNTYYNSVLKSRLSISNDNSKSQVFLRMNSLQTADTAIYYCARPRRDYYALDYWGQGTSVTVAS VL: DVVMTQTPLSLPVSLGDQASISCRSSQSLVYTNGNTFLHWYLQKPGQSPKLLIYKVSNRFSGVPDRFSGSGSGTDFTLKISRVEAEDLGVYFCSQSTHVPPTFGGGTKLEIK
3 | 1.3 µg/mL and 8.71 nM | binds | binds | binds | binds | binds | binds | binds | binds | 0.049 µg/mL and 0.328 nM | 81.1% | 10.7 fold | 0.044 µg/ml and 0.292 nM | 0.061 µg/ml and 0.405 nM | 79% | 38% | 17% | 102% | 64% | 47% | anti-CCR8 mAb 2-3 (antibody, V domains shown) VH: EVQLQQSGPELLKPGTSVKISCTTSGYTFSDYTLHWVKQSHGKSLEWIGGITPKNGDTRYDPRFKDKATLTIDKSSSAAYMELRSLTSEDSAVYYCARVARFYGVSPYAMDYWGQGASVTVSS VL: DVVMTQTPLSLPVSLGDQASISCRCTQSLLHSNGDTYLHWYLQKPGQSPKLLIYKVSNRFSGVPDRFSGSGSGTDFTLEITRVEAEDLGVYFCSQTTHVPYTFGGGTKLEIK
4 | 2.73 µg/mL and 18.3 nM | binds | binds | binds | binds | binds | binds | binds | binds | 0.552 µg/mL and 3.68 nM | 57.7% | 3.84 fold | 0.516 µg/ml and 3.44 nM | 0.82 µg/ml and 5.47 nM |  |  |  |  |  |  | anti-CCR8 mAb 2-7 (antibody, V domains shown) VH: QVQLKESGPGLVAPSQSLSITCTVSGFSLTDYRVSWIRQPPGKGLEWLGVIWGGRSTYYNSALKSRLSISKDNSKSQVFLKMNSLQTDDTAMYYCAKQGDGYYALDYWGQGTSVTVSS VL: DVVMTQTPLSLPVSLGDQASISCRSSQSLVHSYGNTYLHWYLQKPGQSPKLLIYKVSNRFSGVPDRFHGSGSGTDFTLKISRVEAEDLGVYFCSQSTHVPPTFGGGTKLEIK
5 | 1.18 µg/mL and 7.92 nM |  |  |  |  |  |  |  |  | 0.026 µg/mL and 0.172 nM | 81.6% | 9.92 fold |  |  | 99% | 83% | 56% | 116% | 90% | 45% | anti-CCR8 mAb 2-9 (antibody, V domains shown) VH: QVQLQQPGSELVRPGASVKLSCKASGYTFTSYWMHWVKQRPGQGLEWIGNIWPGSASTNYDEKFKNKATLTVDTSSSTAYMQLSSLTSEDSAVYYCIRGGKGAMDYWSQGTSVTVSS VL: DVVMTQIPLSLPVSLGDQASISCRSSQSLENSYGNTYLNWYLQKPGQSPQLLIYRVSNRFSGVLDRFSGSGSGTDFTLKISRVEAEDLGVYFCLQVTHVPPTFGAGTKLELK
6 | 1.25 µg/mL and 8.34 nM | binds | binds | binds | binds | binds | binds | binds | binds | 0.106 µg/mL and 0.706 nM | 69.9% | 5.81 fold |  |  |  |  |  |  |  |  | anti-CCR8 mAb 2-6 (antibody, V domains shown) VH: QVQLKESGPGLVAPSQSLSITCTVSGLSMNDYVVTWIRQPPGKGLEWLGVIWGGGNTYYNSDLKSRLSITKDNSKSQVFFKMSSLQTDDTAVYYCARRHRDYALDYWGQGISVTVSS VL: ENVLTQSPAIMSASPGEKVTMTCRASSSVSSSYLHWYQQKSGASPKLWIYSTSNLASGVPARFSGSGSGTSYSLTISSVEAEDAATYYCQQYSGYPYTFGGGTKLEIK
